For one substance, stoichiometry N results are on record in article PMC10764323.

For the assay, the target named is His-tAmSOD2 (Avicennia marina MnSOD, AmSOD2, without the mitochondrial transit peptide) (Avicennia marina). Put plainly: SEC; gel filtration chromatography on a calibrated Biosil-250 analytical column, elution compared with standard proteins; native mass of almost 116 kDa against a single band of 26 kDa after SDS and DTT. Background: SEC sorts molecules by how far they enter the pores of the column.

Broadly, the stoichiometry N is a count of units in the complex or per binding partner. In the case of “His-tAmSOD2 (Avicennia marina MnSOD, AmSOD2, without the mitochondrial transit peptide) (enzyme)”, the stoichiometry N was determined as 4.
